We go through one molecule from publication doi:10.1101/2021.07.20.453048.

What is called Kd is the concentration at which binding is half-saturated. Low values mean tighter binding, high ones weaker binding.

In this assay the target is Taxol-stabilized microtubules polymerised from purified bovine brain tubulin (bovine) (UniProt Q6B856). The assay is described as follows: co-sedimentation.

B1: His-MBP-ENKD1 (maltose-binding protein fusion of full-length human Enkurin domain containing 1) (natural protein)
chain: MCEGPSRISGPIPPDPTLCPDNYRRPTSAQGRLEGNALKLDLLTSDRALDTTAPRGPCIGPGAGEILERGQRGVGDVLLQLEGISLGPGASLKRKDPKDHEKENLRRIREIQKRFREQERSREQGQPRPLKALWRSPKYDKVESRVKAQLQEPGPASGTESAHFLRAHSRCGPGLPPPHVSSPQPTPPGPEAKEPGLGVDFIRHNARAAKRAPRRHSCSLQVLAQVLEQQRQAQEHYNATQKGHVPHYLLERRDLWRREAEARKQSQPDPAMPPGHTRMPENQRLETLTKLLQSQSQLLRELVLLPAGADSLRAQSHRAELDRKLVQVEEAIKIFSRPKVFVKMDD
B1 came in with a Kd of 160 nM.
